Results published in patent US20260103488A1.

Target: Lck(h) (lymphocyte-specific protein tyrosine kinase) (human) (UniProt P06239)
Assay: cell-based or functional assay

Chain of Lck(h) (lymphocyte-specific protein tyrosine kinase) (human) (P06239 whole entry): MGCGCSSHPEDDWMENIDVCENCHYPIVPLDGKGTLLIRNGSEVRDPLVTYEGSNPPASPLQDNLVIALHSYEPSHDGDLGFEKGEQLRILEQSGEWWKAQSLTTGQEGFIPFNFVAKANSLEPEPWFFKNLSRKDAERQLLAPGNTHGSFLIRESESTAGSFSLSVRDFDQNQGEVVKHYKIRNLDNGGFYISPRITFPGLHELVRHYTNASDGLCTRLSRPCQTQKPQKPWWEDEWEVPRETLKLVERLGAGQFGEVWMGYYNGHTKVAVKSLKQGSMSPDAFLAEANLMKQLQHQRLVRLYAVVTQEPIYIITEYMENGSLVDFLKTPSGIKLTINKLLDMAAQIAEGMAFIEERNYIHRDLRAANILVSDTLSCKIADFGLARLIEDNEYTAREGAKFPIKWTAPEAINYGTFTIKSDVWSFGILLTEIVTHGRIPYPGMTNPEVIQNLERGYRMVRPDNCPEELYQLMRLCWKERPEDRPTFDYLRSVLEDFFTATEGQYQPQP

Lck activity, percentage relative to control, in vitro kinase assay, peptide 1 µM (% increase in Lck activity): 490
Substance: rskaknplyrrrrrrrrr (IKD14800) (peptide)
